This passage reports Km, kcat and kcat/Km results from article PMC4045322 (Biochemistry, 2014).

The target in data set [1] is T1, Rsp3690 (Cereibacter sphaeroides, UniProt Q3IVY4).
T1 sequence (Q3IVY4 1-354): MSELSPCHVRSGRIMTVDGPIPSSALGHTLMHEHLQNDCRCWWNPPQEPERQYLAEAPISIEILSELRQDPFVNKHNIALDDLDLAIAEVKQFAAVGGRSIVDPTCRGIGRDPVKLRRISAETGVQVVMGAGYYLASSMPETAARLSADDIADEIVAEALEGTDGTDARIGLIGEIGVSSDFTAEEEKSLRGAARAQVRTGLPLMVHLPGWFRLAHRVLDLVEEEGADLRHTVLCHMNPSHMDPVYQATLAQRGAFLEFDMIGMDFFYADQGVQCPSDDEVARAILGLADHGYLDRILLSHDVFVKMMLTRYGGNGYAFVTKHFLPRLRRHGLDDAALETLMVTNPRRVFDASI
Put plainly: 4-nitrophenol release at […] nm. The conditions noted are these: pH 8.3, 30 °C, 400 μM MnCl2, Mn enzyme.

Substrate in data set [2]: CC(=O)Oc1cccc2ccccc12
Put plainly: purified protein. The format is biochemical, Cereibacter sphaeroides. The conditions noted are these: pH 8.3, 30 °C, 400 μM MnCl2, Mn enzyme.

Substrate in data set [3]: CC(=O)Nc1ccc(Cl)cc1
Put plainly: purified protein. The format is biochemical, Cereibacter sphaeroides. The following applies: pH 8.3, 30 °C, 400 μM MnCl2, Mn enzyme.

Substrate in data set [4]: CCCCCCC(=O)Oc1ccc2c(C)cc(=O)oc2c1
Put plainly: purified protein. The format is biochemical, Cereibacter sphaeroides. The following applies: pH 8.3, 30 °C, 400 μM MnCl2, Mn enzyme.

Substrate in data set [5]: CCC(=O)Oc1ccc2ccccc2c1
Put plainly: purified protein. The format is biochemical, Cereibacter sphaeroides. The following applies: pH 8.3, 30 °C, 400 μM MnCl2, Mn enzyme.

Substrate in data set [6]: CC(=O)Oc1c[nH]c2ccccc12
Put plainly: purified protein. The format is biochemical, Cereibacter sphaeroides. The following applies: 50 mM Hepes pH 8.3, 1% ethanol, 30 °C, 400 μM MnCl2, Mn enzyme.

Substrate in data set [7]: CC(=O)OCc1ccccc1
Put plainly: purified protein. The format is biochemical, Cereibacter sphaeroides. The following applies: pH 8.3, 30 °C, 400 μM MnCl2, Mn enzyme.

Substrate in data set [8]: CC(=O)Oc1ccc2ccccc2c1
Put plainly: purified protein. The conditions noted are these: pH 8.3, 30 °C, 400 μM MnCl2, Mn enzyme. The format is biochemical, Cereibacter sphaeroides.

Substrate in data set [9]: CCCC(=O)Oc1cccc2ccccc12
Put plainly: purified protein. The format is biochemical, Cereibacter sphaeroides. The following applies: pH 8.3, 30 °C, 400 μM MnCl2, Mn enzyme.

Substrate in data set [10]: CC(=O)Oc1ccccc1
Put plainly: purified protein. The format is biochemical, Cereibacter sphaeroides. The conditions noted are these: pH 8.3, 30 °C, 400 μM MnCl2, Mn enzyme.

Substrate in data set [11]: CC(=O)Oc1ccc(OC(C)=O)cc1
Put plainly: purified protein. The conditions noted are these: pH 8.3, 30 °C, 400 μM MnCl2, Mn enzyme. The format is biochemical, Cereibacter sphaeroides.

Substrate in data set [12]: CC(=O)Oc1ccc2c(C)cc(=O)oc2c1
Put plainly: purified protein. The format is biochemical, Cereibacter sphaeroides. The following applies: pH 8.3, 30 °C, 400 μM MnCl2, Mn enzyme.

Substrate in data set [13]: CC(=O)Oc1cccnc1
Put plainly: purified protein. The format is biochemical, Cereibacter sphaeroides. The following applies: pH 8.3, 30 °C, 400 μM MnCl2, Mn enzyme.

Substrate in data set [14]: CCCC(=O)Oc1ccc2c(C)cc(=O)oc2c1
Put plainly: purified protein. The format is biochemical, Cereibacter sphaeroides. The conditions noted are these: pH 8.3, 30 °C, 400 μM MnCl2, Mn enzyme.

Substrate in data set [15]: CCCC(=O)Oc1ccc([N+](=O)[O-])cc1
Put plainly: purified protein. The following applies: pH 8.3, 30 °C, 400 μM MnCl2, Mn enzyme.

Substrate in data set [16]: CCCCCC(=O)Oc1ccc([N+](=O)[O-])cc1
Put plainly: purified protein. The following applies: pH 8.3, 30 °C, 400 μM MnCl2, Mn enzyme.

Substrate in data set [17]: CC(=O)Nc1ccc([N+](=O)[O-])cc1
Put plainly: purified protein. The conditions noted are these: pH 8.3, 30 °C, 400 μM MnCl2, Mn enzyme.

Substrate in data set [18]: CCCCCCCC(=O)Oc1ccc([N+](=O)[O-])cc1
Put plainly: purified protein. The following applies: pH 8.3, 30 °C, 400 μM MnCl2, Mn enzyme.

Substrate in data set [19]: CC(=O)Oc1ccc([N+](=O)[O-])cc1
Put plainly: purified protein. The conditions noted are these: pH 8.3, 30 °C, 400 μM MnCl2, Mn enzyme.

What is called Km is the substrate concentration at which the rate is half of its maximum. Take `CCOP(=O)(OCC)Oc1ccc([N+](=O)[O-])cc1` [compound 27, paraoxon]: in data set [1], the Km was 110 ± 10 µM.
As for `COP(=O)(OC)Oc1ccc([N+](=O)[O-])cc1` [compound 26, methyl paraoxon], the Km in data set [1] is 420 ± 40 µM.

B1: Rsp3690 (Cereibacter sphaeroides 2.4.1) (protein)
chain: T1 sequence (Q3IVY4 1-354)
By kcat is commonly meant the maximal rate divided by the concentration of active sites. The term kcat/Km denotes the turnover number divided by the Michaelis constant. On to B1, for which the Km in [2] is 640 ± 70 µM; in data set [3], 1600 ± 100 µM; in data set [4], 24 ± 3 µM; in data set [5], 560 ± 30 µM; in [6], 1900 ± 200 µM; in data set [7], 1600 ± 100 µM. For the same molecule, the Km in data set [8] stood at 400 ± 40 µM; in data set [9], 180 ± 20 µM; in data set [10] it was 2800 ± 200 µM; in data set [11], 900 ± 100 µM; in data set [12] it was 240 ± 20 µM; in data set [13], 1800 ± 200 µM. Further, the Km amounted to 160 ± 20 µM in data set [14]; 56 ± 3 µM in [15]; 48 ± 5 µM in data set [16]; 650 ± 60 µM in [17]; 33 ± 4 µM in data set [18]; 520 ± 40 µM in data set [19]. Also, the kcat turned out to be 4.8 ± 0.1 s⁻¹ in data set [2]; 0.1 ± 0.01 s⁻¹ in data set [3]; 0.063 ± 0.001 s⁻¹ in data set [4]; 83 ± 2 s⁻¹ in data set [5]; 2.3 ± 0.1 s⁻¹ in data set [6]; 2.5 ± 0.1 s⁻¹ in data set [7]. Moreover, the kcat in data set [8] turned out to be 40 ± 2 s⁻¹; in data set [9], 9 ± 1 s⁻¹; in [10] it was 30 ± 1 s⁻¹; in data set [11], 108 ± 4 s⁻¹; in [12], 0.65 ± 0.02 s⁻¹; in data set [13], 4.3 ± 0.3 s⁻¹. The kcat was determined as 4.9 ± 0.2 s⁻¹ in [14]; 50 ± 1 s⁻¹ in data set [15]; 6.5 ± 0.2 s⁻¹ in data set [16]; 0.36 ± 0.02 s⁻¹ in [17]; 0.5 ± 0.01 s⁻¹ in data set [18]; 120 ± 3 s⁻¹ in data set [19]. For the same molecule, the kcat/Km came to 7500 ± 100 M⁻¹ s⁻¹ in [2]; 63 ± 7 M⁻¹ s⁻¹ in data set [3]; 2600 ± 300 M⁻¹ s⁻¹ in data set [4]; 150000 ± 10000 M⁻¹ s⁻¹ in data set [5]; 1200 ± 100 M⁻¹ s⁻¹ in [6]; 1600 ± 100 M⁻¹ s⁻¹ in [7]. In addition, the kcat/Km was 100000 ± 10000 M⁻¹ s⁻¹ in data set [8]; 50000 ± 6000 M⁻¹ s⁻¹ in data set [9]; 11000 ± 1000 M⁻¹ s⁻¹ in data set [10]; 130000 ± 10000 M⁻¹ s⁻¹ in [11]; 2700 ± 200 M⁻¹ s⁻¹ in [12]; 2400 ± 300 M⁻¹ s⁻¹ in data set [13]. Moreover, the kcat/Km came to 31000 ± 4000 M⁻¹ s⁻¹ in data set [14]; 880000 ± 40000 M⁻¹ s⁻¹ in data set [15]; 130000 ± 10000 M⁻¹ s⁻¹ in data set [16]; 550 ± 60 M⁻¹ s⁻¹ in data set [17]; 15000 ± 2000 M⁻¹ s⁻¹ in data set [18]; 230000 ± 20000 M⁻¹ s⁻¹ in data set [19].
